# Experimental data reported in EP4722253A1.
# Molecular target: HER2 expressed on JIMT-1 cells (UniProt P04626)
# Assay: flow cytometry on JIMT-1 cells, antibody at 100 nM, FITC secondary
substance,measurement,value
IgG control (antibody),MFI,12500
